Reference: US7449316B2, “UDP-galactose: β-D-galactose-R 4-α-D-galactosyltransferase, α4Gal-T1” (Glycozym APS, priority 2000, dated 2008)

T1: α4Gal-T1 (Homo sapiens, UniProt Q9NPC4)
T1 construct: The full coding constructs were assayed with 1% Triton X-100 homogenates of cells; made in house; host or cells: insect cells (High Five), baculovirus vector pVL1393
T1 sequence (Q9NPC4 1-353): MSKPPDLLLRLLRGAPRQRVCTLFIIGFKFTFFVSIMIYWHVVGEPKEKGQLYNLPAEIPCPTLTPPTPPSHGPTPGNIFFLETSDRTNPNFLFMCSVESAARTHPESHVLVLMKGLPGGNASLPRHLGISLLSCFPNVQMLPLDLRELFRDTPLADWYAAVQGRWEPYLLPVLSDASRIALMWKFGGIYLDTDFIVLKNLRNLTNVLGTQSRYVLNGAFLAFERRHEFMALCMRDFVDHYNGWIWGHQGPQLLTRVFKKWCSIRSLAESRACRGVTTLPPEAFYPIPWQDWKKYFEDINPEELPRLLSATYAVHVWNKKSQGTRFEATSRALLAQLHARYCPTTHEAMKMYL


Tests used:
α4Gal-T1 = biological target: T1, α4Gal-T1; assay: Saccharide acceptor substrates tested with α4Gal-T1; assay type: biochemical; conditions: saccharide acceptors, α4Gal-T1 expressed in insect cells
Protocol: (§1) Full coding constructs were prepared by genomic PCR using primer pair HCRS131 (5′-[…]) (SEQ ID NO:7) and HCRS125 (5′-[…]) (SEQ ID NO:8) and genomic DNA from phenotyped individuals with phenotypes P1+ (#165) and p (#4) (see Table II for sequence). Three different full coding constructs were selected for expression: #67 (A109, T548, G903, G987), #45 (G109, T548, G903, A987), and p#5 (A109, A548, G903, G987). The products were cloned into BamHI and EcoRI sites of pBluescript KS+, and subsequently into the insect cell expression vector pVL1393 (Pharmingen), and sequenced in full. A truncated, secreted construct (amino acid residues 46-353) was prepared using primer pair HCRS124 (5′-[…]) (SEQ ID NO:9) and HCRS125 from a P1+ phenotype individual (#165), and the sequence confirmed as described above. The products were cloned into the expression vector pAcGP67A (Pharmingen). The variants of plasmids pVL-α4Gal-T1-full and pAcGP67-α4Gal-T1-sol were co-transfected with Baculo-Gold™ DNA (Pharmingen), and virus amplified as described previously (Bennett et al., 1996). Standard assays were performed in 50 μl reaction mixtures containing 25 mM Cacodylate (pH 6.5), 10 mM MnCl2, 0.25% Triton X-100, 100 μM UDP-[^14C]Gal (10,000 cpm/nmol) (Amersham), and the indicated concentrations of acceptor substrates (Sigma and Dextra Laboratories Ltd) (see Table I for structures). The full coding constructs were assayed with 1% Triton X-100 homogenates of cells twice washed in phosphate buffered saline or resuspended microsomal fractions.

[1] = P1 assay: α4Gal-T activity with paragloboside (PG) acceptor; assay type: biochemical; conditions: full coding constructs in insect cells, 20 μg PG, UDP-Gal donor
Protocol: (§2) FIG. 4 illustrates expression of full coding Expression of full coding α4Gal-T1 variants in High Five cells. Assays were performed with microsomal fractions, and controls included constructs encoding polypeptide GalNAc-T3 and -T4 (Bennett et al., 1998), as well as a β3GlcNAc-T (Amado et al., 1999). Autoradiography of high performance thin-layer chromatography of reaction products (4 hr) purified by SepPack C-18 columns. Panel A: P^k assay using 25 μg CDH as substrate. Plate was run in chloroform-methanol-water (60/35/8 v/v/v). […] Panel B: P1 assay using 20 μg PG as substrate. Plate was run in chloroform-methanol-water (60/40/10 v/v/v). No specific product was formed with UDP-Gal donor substrate, whereas the β3GlcNAc-T transferred GlcNAc into PG with UDP-GlcNAc.
Full coding constructs were prepared by genomic PCR using primer pair HCRS131 (5′-[…]) (SEQ ID NO:7) and HCRS125 (5′-[…]) (SEQ ID NO:8) and genomic DNA from phenotyped individuals with phenotypes P1+ (#165) and p (#4) (see Table II for sequence). Three different full coding constructs were selected for expression: #67 (A109, T548, G903, G987), #45 (G109, T548, G903, A987), and p#5 (A109, A548, G903, G987). The products were cloned into BamHI and EcoRI sites of pBluescript KS+, and subsequently into the insect cell expression vector pVL1393 (Pharmingen), and sequenced in full. […]

[2] = P^k assay: galactosyltransferase activity with CDH, α4Gal-T1 constructs expressed in insect cells; assay type: biochemical; conditions: full coding constructs in insect (High Five) cells, microsomal fractions, 25 μg CDH, UDP-[14C]Gal, 4 hr, compared to uninfected cells or control construct
Protocol: as §2, §1

Namalwa cells = assay: Cell surface P^k/CD77 antigen expression after transient transfection, FACS analysis; assay type: cell-based, human; conditions: transient transfection of Namalwa cells, 48 hours, 1A4 monoclonal antibody
Protocol: FIG. 7 illustrates cell surface expression of P^k/CD77 antigen in Namalwa cells after transient transfection of α4Gal-T1. Constructs p#5, #45, and #67, as well as empty pDR2 vector were electroporated in Namalwa cells and expression of P^k/CD77 antigen was tested after 48 hours. Cells were labeled with 1A4 monoclonal antibody and GAM-FITC (grey histograms) or with GAM-FITC alone (empty histograms) and analysed with a FACSCalibur flow cytometer.
The three full coding constructs #67, #45, and p#5, were cloned into pDR2 (Clontech, USA). Insert was excised from pBKs with BamHI/XhoI and inserted into the BamHI/SalI sites of pDR2. Transient transfection of 5×10^6 Namalwa cells with 20 μg cDNA was done by double-pulse electroporation using an Easy-cell ject+ (Eurogentec, France). Expression of CD77/P^k antigen was evaluated by FACS analysis on a FACSCalibur (Beckton-Dickinson, USA) using 1A4 monoclonal antibody (Wiels, 1997).

Row | Molecule | acceptor activity over background (α4Gal-T1) | galactosyltransferase (α4Gal-T) activity with CDH [2] | other results
1 | OC[C@H]1O[C@@H](O[C@H]2[C@H](O)[C@@H](O)[C@H](OCc3ccccc3)O[C@@H]2CO)[C@H](O)[C@@H](O)[C@H]1O [benzyl β-lacto-side] | no significant activity over background values |  | 
2 | N[C@H]1C(O)O[C@H](CO)[C@@H](O[C@@H]2O[C@H](CO)[C@H](O)[C@H](O)[C@H]2O)[C@@H]1O (stereo partly drawn) [lactosamine] | no significant activity over background values |  | 
3 | OC[C@H]1O[C@@H](O[C@H]2[C@H](O)[C@@H](O)C(O)O[C@@H]2CO)[C@H](O)[C@@H](O)[C@H]1O (stereo partly drawn) [lactose] | no significant activity over background values |  | 
4 | α4Gal-T1^37V: full coding human α4Gal-T1 variant, construct #45 (G109, T548, G903, A987), Val at residue 37 (protein, UniProt Q9NPC4 1-353, looked up, full-length) MSKPPDLLLRLLRGAPRQRVCTLFIIGFKFTFFVSIMIYWHVVGEPKEKGQLYNLPAEIPCPTLTPPTPPSHGPTPGNIFFLETSDRTNPNFLFMCSVESAARTHPESHVLVLMKGLPGGNASLPRHLGISLLSCFPNVQMLPLDLRELFRDTPLADWYAAVQGRWEPYLLPVLSDASRIALMWKFGGIYLDTDFIVLKNLRNLTNVLGTQSRYVLNGAFLAFERRHEFMALCMRDFVDHYNGWIWGHQGPQLLTRVFKKWCSIRSLAESRACRGVTTLPPEAFYPIPWQDWKKYFEDINPEELPRLLSATYAVHVWNKKSQGTRFEATSRALLAQLHARYCPTTHEAMKMYL |  | marked increase in galactosyltransferase activity | α4Gal-T activity with neolacto-series (paragloboside) glycolipid acceptor (P1 synthase activity) [1]: neither α4Gal-T1^37M or α4Gal-T1^37V constructs conferred α4Gal-T activity; galactosyltransferase (α4Gal-T) activity with CDH ([2]; listed as #45): resulted in α4Gal-T activity toward CDH; P^k/CD77 expression (Namalwa cells): clearly resulted in P^k/CD77 expression
5 | α4Gal-T1^183K: full coding α4Gal-T1 from p individuals, construct p#5 (A109, A548, G903, G987), Met183 to Lys (protein, UniProt Q9NPC4 1-353, looked up, variant M183K, full-length, full coding α4Gal-T1 from p individuals, construct p#5 (A109, A548, G903, G987), Met183 to Lys) MSKPPDLLLRLLRGAPRQRVCTLFIIGFKFTFFVSIMIYWHVVGEPKEKGQLYNLPAEIPCPTLTPPTPPSHGPTPGNIFFLETSDRTNPNFLFMCSVESAARTHPESHVLVLMKGLPGGNASLPRHLGISLLSCFPNVQMLPLDLRELFRDTPLADWYAAVQGRWEPYLLPVLSDASRIALKWKFGGIYLDTDFIVLKNLRNLTNVLGTQSRYVLNGAFLAFERRHEFMALCMRDFVDHYNGWIWGHQGPQLLTRVFKKWCSIRSLAESRACRGVTTLPPEAFYPIPWQDWKKYFEDINPEELPRLLSATYAVHVWNKKSQGTRFEATSRALLAQLHARYCPTTHEAMKMYL |  | no activity | galactosyltransferase (α4Gal-T) activity with CDH ([2]; listed as #5): no activity above background
